{"source": "paper PMC7102968", "about": "“The complex formed between a synthetic RNA aptamer and the transcription repressor TetR is a structural and functional twin of the operator DNA–TetR regulator complex” (Nucleic Acids Research, 2020)", "biological_target": "the molecule itself", "assay": "crystal structure; TetR co-crystallised with RNA aptamer K1 (2.7 Å) or K2 (2.9 Å); complex purified by gel filtration in 20 mM Tris-HCl pH 8.0, 150 mM NaCl, 5 mM MgCl2; sitting-drop vapor diffusion at 20°C", "data": [{"protein": "TetR type BD' (TetR (B1–B187:D188–D208; C68S, C88N, C121T and C144S)) (natural protein, TetR class B, residues 1-187 of the cysteine-free chimeric TetR type BD'; TetR class D, residues 188-208 of the chimeric TetR type BD'; homodimer; also called Tet repressor; wild-type TetR; source: purified) MSRLDKSKVINSALELLNEVGIEGLTTRKLAQKLGVEQPTLYWHVKNKRALLDALAIEMLDRHHTHFSPLEGESWQDFLRNNAKSFRNALLSHRDGAKVHLGTRPTEKQYETLENQLAFLTQQGFSLENALYALSAVGHFTLGSVLEDQEHQVAKEERETPTTDSMPPLLRQAIELFDHQGAEPAFLHGLESLIRGFEVQLTALLQIV", "values": [{"measurement": "stoichiometry N", "value": 2}]}]}
